This data set in a line: yeast display, Sf9 membrane polyspecificity reagent, FACS + sequencing; frameworks hold sequencing errors. The essentials: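 Nanobodies from a synthetic yeast display library (Saccharomyces cerevisiae BJ5465), induced 36–48 hours with galactose, were stained 1 hour at 4 °C with 10% biotinylated, detergent-solubilized Sf9 membrane reagent, enriched on streptavidin microbeads, then FACS-sorted. Anti-HA (expression) and streptavidin (reagent binding) fluorescence set low and high (top ~1%) gates. Polyreactivity labels come from the gate of origin. Genes were colony-PCR amplified, MiSeq 2 × 250 sequenced and filtered by CDR length.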
For the sequence “QVQLVESGGGLVQAGGSLRLSCAASGIIFSWYDMGWYRKAPGKERELVAAISSGDRTNYADSVKGRFTISRDNAKNTVYLQMNSLKPEDTAVYYCAADLFPIAGEYDYWGQGTQVTVSS”, the “polyreactivity (PSR sort gate)” value is reported as “high polyreactivity”.
In the case of “QVQLVESGGGLVQAGGSLRLSCAASGRTFVYYAMGWYRQAPGKEREFVATITSSGGSTYYADSVKGRFTISRDNAKNTVYLQMNSLKPEDTAVYYCNADSVSSPPYYDYWGQGTQVTVSS”, the “polyreactivity (PSR sort gate)” value is on record as “high polyreactivity”.
The same measure for “QVQLVESGGGLVQAGGSLRLICAASGSTFPGYAMGWYRQAPGKERELVATITRRGGSTYYADSVKGRFTISRDNAKNTVYLQMNSLKPEDTAVYYCNAVDYTVWLFPYDTGVDYWGQGTQVTVSS”: “low polyreactivity”.
Consider “QVQLVESGGGLVQAGGSLRLSCAASGSTFGVNAMGWYRQAPGKERELVAAIRWSDGSTYYADSVKGRFTISRDNAKNTVYLQMNSLKPEDTAVYYCNTDLTVYFPVEYWGQGTQVTVSS”, for which the “polyreactivity (PSR sort gate)” value is listed as “low polyreactivity”.
With “QVQLVESGGGLVQAGGSLRLSCAASGFTFPSNAMGWYRQAPGKERELVAAISSTDSTNYADSVKGRFTISRDNAKNTVYLQMNSLKPEDTAVFYCNADRDDDYDYWGQGTQVTVSS”, the “polyreactivity (PSR sort gate)” value is listed as “low polyreactivity”.
The same measure for “QVQLVESGGGLVQAGGSLRLSCAASGSIFPRYAMGWYRQAPGKERELVAAITGSGSSTYYADSVKGRFTISRDNAKNTVYLQMNSLKPEDTAVYYCAARKARPPCPHPFDYYWGEGTQVTVSS”: “low polyreactivity”.
In the case of “QVQLVESGGGLVQAGGSLRLSCAASGRTFLWNAMGWSRPAPGKERELVAAITSGGRTTYADSVKGRFTISRDNAKNTVYLQMNSLKPEDTAVYYCAAVSANQDFDYWGQGTQVTVSS”, the “polyreactivity (PSR sort gate)” value is on record as “high polyreactivity”.
The same measure for “QVQLVESGGGLVQAGGSLRLSCAASGIIFAYNAMGWYRQAPGKERELVAAISVIGGTTYYADSVKGRFTISRDNAKNTVYLQMHSLKPEDTAVYYCAVDSVQYGGGYERLHELYYWGQGTQVTVSS”: “low polyreactivity”; for “QVQLVESGGCLVQAGGSLRLSSAASGRTFDHYAMGWYRQAPGKERELDAAITSGGSTYYADSVKGRFTISRDNAKNTVYLQMNSLKPEDTAVYYCNKDSSFWGSYIAQVNERDYWGQGTQVTVSS”: “low polyreactivity”.
The same measure for “QVQLVESGGGLVQAGGSLRLSCAASGRTFAPYAMGWYRQARGQERELVATITRTGRTNYADSVKGRFTISRDNAKNTVYLQMNSLKPEDTAVYYCAAYTYYGFYYWGQGTQVTVSS”: “high polyreactivity”; for “QVQLVESGGGLVQAGGSLRLSCAASGFTFEKYAMGRYIQAPGKERELDASISWSGGRTRYADSVKGRFTISRDNAKNTVYLQMNSLKPEDTAVYYCAARPLFGWRGYNYWGQGTQVTVSS”: “high polyreactivity”.
The same measure for “QVQLVESGGGLVQAGGSLRLSCAASGSTFYRNAMAWYRQAPGKERELVAAISSTGGSTYYADSVKGRFTISRDNAKNTVYLQMNSLKPEDTAVYYCAVDPGLTKGFGYWGQGTQVTVSS”: “low polyreactivity”.
With “QVQHVESGGGLVQAGGSLRLSCAASGSTFDGYAMGWYRQAPGKERELVAAISRSGGRTYYADSVKGRFTISRDNAKNTVYLQMTSLKPEDTAVYYCAALYPYKREDYWGQGTQVTVSS”, the “polyreactivity (PSR sort gate)” value was “high polyreactivity”.
As for “QVQLVESGGGLVQAGGSLRLSCAASGSIFDWNAMGWYRQAPGKERELVATISWDGGSTYYADSVKGRFTISRDNSKNTVYLQMNSLKPEDTAVYYCATVFTGKPAYYARTKYDYWGQGTQVTVSS”, the “polyreactivity (PSR sort gate)” value was “low polyreactivity”.
The same measure for “QVQLVESGGGLVQAGGSLRLSCAASGFTFVRYAMGWYRQAPGKERELVAAITRSGGSTYYADSVKGRFTISRDNAKNTVYLQMNSLKPEDTAVYYCNARRSRSRYDYWGQGTQVTVSS”: “high polyreactivity”.
The same measure for “QVQLVESGGGLVQAGGSLRLSCADSGFTFLSNVMGWYRQAPGKERELDAAINYSGDGTYYADSVKGRFTISRDNAKNTVYLQMNSLKPEDSAVYYCAADVEYYRDVPPQVYVSDDYWGQGTQVTVSS”: “low polyreactivity”; for “QVQLVESGGGLVQAGGSLRLSCAASGSTFSYYTMGWYRQSPGKERELVAVISTSGGNTYYADSVKGRFTISRDNAKNTVYLQMNSLKPEDTAVYYCAAAYPRVTYKNGYYWGQGTQVTVSS”: “high polyreactivity”.
The same measure for “QVQLVESGGGLVQAGGSLRLSSAASGSIFRVNAMGWYRQAPGKERELVAAISTSGGNTYYADSVKGRFTISRDNAKNTVYLQMNSLKPEDTAVYYCNAPWSSFNGFTGRYDYWGQGTQVTVSS”: “low polyreactivity”; for “QVQLVESGGGLVQAGGSLRLSCAASGFTFYRYDMGWYRQAPGKERELVAAITNNGGKTYYADSVKGRITISRDNAKYSDYLQMNSLKPVDTAVYYSAAEFYWGDLSYWGQGTQVTVSS”: “high polyreactivity”; for “QVHLVDSGGGLVQAGGSLRLSCPASGLTFPSNSMGCYRQAPGKERELVAAISKRGGRTYYADSVKGRFTISRDNAKNTVYLQMNSLKPEDTAVYYCATLYAYPGTVQYAGYNYWGQGTQVTVSS”: “high polyreactivity”.
In the case of “KVQLVESGGGLVQAGGSLRLSCAASGNPLLFNALGWYRQAPGKERELVARITSSGASTYYADSVKGRFTISRDNAKNTLYLQMNSLKAEDTAVYYCAARTRTRRGYTSGDYWGQGSQVTVSS”, the “polyreactivity (PSR sort gate)” value was “high polyreactivity”.
For the sequence “QVQLQESGGGLLQVGGSLRLSCAASGTIFIYGFLGWNRQAPGKERELVASINLGGITNYADSVKGRFTISRDNAKKTVYLQMISLKPEDTAVYYCAAYVVTGQNYGYWGQGTQVTVSS”, the “polyreactivity (PSR sort gate)” value was “low polyreactivity”.
The same measure for “QVQLVESGGGLVQAGGSLRLSCAASGRIIGQYAMGWYRQAPGKERELVAAITQRGGSTYYADSVKGRFTISRDNAKNTVYLLMNCLKPEDTAVYYCNKRYRFTGIRDPFDYWGQGTQVTVSS”: “low polyreactivity”.
The same measure for “QVQLVESGGGLVQAGGSLRLSCAASGYTFQKYAMGWYRQAPGKERESVAAITRSGTRTYYADSVKGRFTISRDNAKNTVYLQMNSLKPEDTAVYYCAAETYYSIYDYWGQGTQVTVSS”: “high polyreactivity”; for “QVQLVESGGGLVQAGGSLRLSCAASGFTFDINTMGWYRQAPGKERELVAAITYSGGSTYYADSVKGRFTISRDNAKNTVYLQMNSLKPEDTAVYYCATTWYFVASWYVAIYDYWGQGTQVTVSS”: “low polyreactivity”.
The same measure for “QVQLVESGGGLVQARGSLRLSCAASGSIFIRNAMGWYRQAPGKERELVAAISTIGGRTYYADSVKGRFTISRDNAKNTVYLQMNSLKPEDTAVYYCAAEQGTPSTNWYDYWGQGTQVTVSS”: “low polyreactivity”; for “QVQLVESGGGLVQAGGSLRLSCAASGRTFKYYAMGWYRQAPGKERELVAAISLSSGRTYYADSVKGRFTISRDNAKNTVYLQMNSLKPEDTAVYYCAAERYASGLVYGYDYWGQGTQVTVSS”: “high polyreactivity”; for “QVQLVESGGGLVQAGGSLRLSCAASGSTFDYNAMGWYRQAPGKERELVAAITSTGGNTYYADSVKGRFTISRDHAKNTDYLQMNSLKPEDTAVYYCNKDVARYPYGNFDYWGQGTQVTVSS”: “low polyreactivity”.
“QVQLVESGGGLVQAGVSLSLSCAASGITFIIYVMGWYRQAPGKERELVAAISSTGSTYYADSVKGRFTISRDNAKNTVYLQMNSLKPEDTAVYYCAARGRRSSNGFYYWGQGTQVTVSS”: the “polyreactivity (PSR sort gate)” value is given as “high polyreactivity”.
The same measure for “QVQLVESGGGLVQAGGSLRLSCAASGLTFRRNAMGWYRQAPGKERELVAVNSRSGGSTYYADSVKGRFTISRDNAKNTVYLQMNCLKPEDTAVYYCNKRTRRTYDYWGQGTQVTVSS”: “high polyreactivity”; for “QVQLVESGGGLLQAGGSLRLSCAASGRIFNINAMGWYRQAPGKERELVAAISSGDSTYYADSVKGRFTISRDNAKNTVYLQMNSLKPEDSAVDYCNKDLYIWGHGTQVTVSS”: “low polyreactivity”; for “QVQLVESGGGLVQAGGSLRLSCAASGFTFAVYVMGWYRQAPGKERELVATISFSVGSTYYADSVKGRFTISRDNAKNTVYLQMNSLKPEDTAVYYCNADPPPEYYPDKDNYWGQGTQVTVSS”: “low polyreactivity”.
The same measure for “QVQLVESGGGLVQAGGSLRLSCAASGSIFVGYAMGWYRQAPGKETELVAAISTRGGSTYYAETVKGRFTISRDNAKNTVYLQMNILKPEDNAVYYCAADYLDSTYGYVYGWDDYWGKGTQVTVSS”: “low polyreactivity”.
The same measure for “QDQLVESRGGIVQAGGSLRLSCAASGSTFRLYAMGWYRQAPGKERELVAAISSGGTTKYADSVKGRFTNSRDNAKNTVYLQMNSLTPEDTAVYYCNAVYHWGNPGEYATLPRYDYWGQGTQVNVSS”: “high polyreactivity”; for “QVQLVDSGGGLVQAGGSLRLSCAASGLNFVINAMGWYRQAPGKERELDATISSGVSTNYADSVKGRFTISRDNAKNTVYLQMNSLKPEDTAVYDCNKGQTVSRGYRLYERYDYWGQGTQVTVSS”: “low polyreactivity”; for “QVQLVESGGCLVQAGGSLRLSCAASGSTFKIYAMGWYRQAPWKERELVAAISWRGGRTYYADSVKGRFTISRDNAKNTVYLQMNSLKPEDTAVYYCDKGTRQGLEFWGQGTQVTVSS”: “high polyreactivity”.
For “QVQLVESGGGLVQAGGSLRLSCAASGRIFLDYAMGWYRQAPGKERELVAAIRYSGVGTYYADSVKGRFTISRDNAKNTVYLQMNSLKPEDTAVYYCNAVTKVGYLRRRDYWGQGTQVTVSS”, the “polyreactivity (PSR sort gate)” value is recorded as “high polyreactivity”.
The same measure for “QVQLVEAGGGLVQAGGSLRLSCAASGYTFGKNAMGWYRQAPGKERELVAAITYSGGSTYYADSVKGRFTISRDNAKNTVYLQMNSLKPEDTAVYYCAADNPSDVYDTWVYYWGQGTQVTVSS”: “high polyreactivity”; for “QVQLVESGGGLVQAGGSLRLICAASGSTFFYNAMGWYRQAPGKEREFVAAIRWRGGSTYYADSVKGRFTISRDNAKNTVYLQMNSLKPEDTAVYYCAAVYYRWEYDYWGQGTQVTVSS”: “high polyreactivity”.
The same measure for “QVQLVESGGGLVQAGGSLRLSCAASGRIIVPYVMGWYRLAPGKERELVAAISTSGTSTYYADSVKGRFTISRDNAKNTVYLQMNSLKPEDTAVYYCAKRSGARHRLMDYWGQGTQVTVSS”: “low polyreactivity”.
The same measure for “QVQLVESGGGLVQAGGSLRLSCAASGITFVRYAMGWYRQAPGKERELVAAISSGGSTHYADSVKGRFTISRDNAKNTVYLQMNSLKPEDTAVYYCAAQWTESSLYRFGYLGQGTQVTVSS”: “high polyreactivity”.

The record behind these values is the nanobody polyreactivity screen of Harvey et al. (2022).
